Patent publication US6541450B1, “Parathyroid hormone analogues for the treatment of osteoporosis” (National Research Council of Canada, priority 1994, dated 2003)
Where a SMILES comes first, the peptide text is derived from it. Bridges are numbered along the chain shown (N, C = ends). Where no end group is shown, it is not given here. [ ]: non-standard residue; d: D form. Orn = NCCC[C@H](N)C(=O)O

T1: adenylyl cyclase, ROS 17/2 cells (Rattus norvegicus, UniProt P25961)
T1 sequence (P25961 27-591): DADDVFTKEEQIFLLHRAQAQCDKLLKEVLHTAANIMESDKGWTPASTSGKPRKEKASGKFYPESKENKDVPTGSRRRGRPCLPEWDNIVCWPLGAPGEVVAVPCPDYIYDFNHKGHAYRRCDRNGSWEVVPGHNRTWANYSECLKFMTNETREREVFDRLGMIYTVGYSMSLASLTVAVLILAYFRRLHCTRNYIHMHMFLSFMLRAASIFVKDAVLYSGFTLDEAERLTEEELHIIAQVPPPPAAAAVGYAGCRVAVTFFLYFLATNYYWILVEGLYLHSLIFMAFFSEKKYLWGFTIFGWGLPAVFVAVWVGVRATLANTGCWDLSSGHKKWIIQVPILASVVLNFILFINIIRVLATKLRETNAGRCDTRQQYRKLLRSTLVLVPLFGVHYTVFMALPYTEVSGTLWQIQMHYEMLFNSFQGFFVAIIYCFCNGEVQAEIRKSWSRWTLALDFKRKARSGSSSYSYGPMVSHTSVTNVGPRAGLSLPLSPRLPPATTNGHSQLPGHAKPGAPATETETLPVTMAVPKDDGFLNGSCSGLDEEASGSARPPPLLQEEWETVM


Each molecule was assayed against PTH receptor (rat (ROS 17/2 rat osteosarcoma cell …, UniProt P25961)) (assay: cell-based or functional assay). Details: not given.

| Molecule | Adenylyl Cyclase (EC50) [µM] |
| --- | --- |
| SVSEIQLMHNLGKHLNSMERVKWLRELLQDV-NH2 (lactam 22-26; N-terminus assumed; SMILES CC[C@H](C)[C@H](NC(=O)[C@H](CCC(=O)O)NC(=O)[C@H](CO)NC(=O)[C@@H](NC(=O)[C@@H](N)CO)C(C)C)C(=O)N[C@@H](CCC(N)=O)C(=O)N[C@@H](CC(C)C)C(=O)N[C@@H](CCSC)C(=O)N[C@@H](Cc1c[nH]cn1)C(=O)N[C@@H](CC(N)=O)C(=O)N[C@@H](CC(C)C)C(=O)NCC(=O)N[C@@H](CCCCN)C(=O)N[C@@H](Cc1c[nH]cn1)C(=O)N[C@@H](CC(C)C)C(=O)N[C@@H](CC(N)=O)C(=O)N[C@@H](CO)C(=O)N[C@@H](CCSC)C(=O)N[C@@H](CCC(=O)O)C(=O)N[C@@H](CCCNC(=N)N)C(=O)N[C@H](C(=O)N[C@H]1CCCCNC(=O)CC[C@@H](C(=O)N[C@@H](CC(C)C)C(=O)N[C@@H](CC(C)C)C(=O)N[C@@H](CCC(N)=O)C(=O)N[C@@H](CC(=O)O)C(=O)N[C@H](C(N)=O)C(C)C)NC(=O)[C@H](CCCNC(=N)N)NC(=O)[C@H](CC(C)C)NC(=O)[C@H](Cc2c[nH]c3ccccc23)NC1=O)C(C)C) [[Leu^27]cyclo(Lys^22-Glu^26)-hPTH-(1-31)-NH2] | 0.004 |
| SVSEIQLMHNLGKHLNSMERVDWLR[Orn]LLQDV-NH2 (lactam 22-26; N-terminus assumed; SMILES CC[C@H](C)[C@H](NC(=O)[C@H](CCC(=O)O)NC(=O)[C@H](CO)NC(=O)[C@@H](NC(=O)[C@@H](N)CO)C(C)C)C(=O)N[C@@H](CCC(N)=O)C(=O)N[C@@H](CC(C)C)C(=O)N[C@@H](CCSC)C(=O)N[C@@H](Cc1c[nH]cn1)C(=O)N[C@@H](CC(N)=O)C(=O)N[C@@H](CC(C)C)C(=O)NCC(=O)N[C@@H](CCCCN)C(=O)N[C@@H](Cc1c[nH]cn1)C(=O)N[C@@H](CC(C)C)C(=O)N[C@@H](CC(N)=O)C(=O)N[C@@H](CO)C(=O)N[C@@H](CCSC)C(=O)N[C@@H](CCC(=O)O)C(=O)N[C@@H](CCCNC(=N)N)C(=O)N[C@H](C(=O)N[C@H]1CC(=O)NCCC[C@@H](C(=O)N[C@@H](CC(C)C)C(=O)N[C@@H](CC(C)C)C(=O)N[C@@H](CCC(N)=O)C(=O)N[C@@H](CC(=O)O)C(=O)N[C@H](C(N)=O)C(C)C)NC(=O)[C@H](CCCNC(=N)N)NC(=O)[C@H](CC(C)C)NC(=O)[C@H](Cc2c[nH]c3ccccc23)NC1=O)C(C)C) [[Leu^27]cyclo(Asp^22-Orn^26)-hPTH-(1-31)-NH2] | > 0.2 |
| SVSEIQLMHNLGKHLNSMERVCWLRCLLQDV-NH2 (disulfide 22-26; N-terminus assumed; SMILES CC[C@H](C)[C@H](NC(=O)[C@H](CCC(=O)O)NC(=O)[C@H](CO)NC(=O)[C@@H](NC(=O)[C@@H](N)CO)C(C)C)C(=O)N[C@@H](CCC(N)=O)C(=O)N[C@@H](CC(C)C)C(=O)N[C@@H](CCSC)C(=O)N[C@@H](Cc1c[nH]cn1)C(=O)N[C@@H](CC(N)=O)C(=O)N[C@@H](CC(C)C)C(=O)NCC(=O)N[C@@H](CCCCN)C(=O)N[C@@H](Cc1c[nH]cn1)C(=O)N[C@@H](CC(C)C)C(=O)N[C@@H](CC(N)=O)C(=O)N[C@@H](CO)C(=O)N[C@@H](CCSC)C(=O)N[C@@H](CCC(=O)O)C(=O)N[C@@H](CCCNC(=N)N)C(=O)N[C@H](C(=O)N[C@H]1CSSC[C@@H](C(=O)N[C@@H](CC(C)C)C(=O)N[C@@H](CC(C)C)C(=O)N[C@@H](CCC(N)=O)C(=O)N[C@@H](CC(=O)O)C(=O)N[C@H](C(N)=O)C(C)C)NC(=O)[C@H](CCCNC(=N)N)NC(=O)[C@H](CC(C)C)NC(=O)[C@H](Cc2c[nH]c3ccccc23)NC1=O)C(C)C) [[Cys^22, Cys^26, Leu^27]cyclo(Cys^22-Cys^26)-hPTH-(1-31)-NH2] | 0.016 |
| SVSEIQLMHNLGKHLNSMERVEWLRCLLQCV-NH2 (disulfide 26-30; N-terminus assumed; SMILES CC[C@H](C)[C@H](NC(=O)[C@H](CCC(=O)O)NC(=O)[C@H](CO)NC(=O)[C@@H](NC(=O)[C@@H](N)CO)C(C)C)C(=O)N[C@@H](CCC(N)=O)C(=O)N[C@@H](CC(C)C)C(=O)N[C@@H](CCSC)C(=O)N[C@@H](Cc1c[nH]cn1)C(=O)N[C@@H](CC(N)=O)C(=O)N[C@@H](CC(C)C)C(=O)NCC(=O)N[C@@H](CCCCN)C(=O)N[C@@H](Cc1c[nH]cn1)C(=O)N[C@@H](CC(C)C)C(=O)N[C@@H](CC(N)=O)C(=O)N[C@@H](CO)C(=O)N[C@@H](CCSC)C(=O)N[C@@H](CCC(=O)O)C(=O)N[C@@H](CCCNC(=N)N)C(=O)N[C@H](C(=O)N[C@@H](CCC(=O)O)C(=O)N[C@@H](Cc1c[nH]c2ccccc12)C(=O)N[C@@H](CC(C)C)C(=O)N[C@@H](CCCNC(=N)N)C(=O)N[C@H]1CSSC[C@@H](C(=O)N[C@H](C(N)=O)C(C)C)NC(=O)[C@H](CCC(N)=O)NC(=O)[C@H](CC(C)C)NC(=O)[C@H](CC(C)C)NC1=O)C(C)C) [[Cys^26, Cys^30, Leu^27]cyclo(Cys^26-Cys^30)-hPTH-(1-31)-NH2] | 0.024 |
| SVSEIQLMHNLGKHLNSMERVEWLRKLLQD-NH2 (lactam 22-26; N-terminus assumed; SMILES CC[C@H](C)[C@H](NC(=O)[C@H](CCC(=O)O)NC(=O)[C@H](CO)NC(=O)[C@@H](NC(=O)[C@@H](N)CO)C(C)C)C(=O)N[C@@H](CCC(N)=O)C(=O)N[C@@H](CC(C)C)C(=O)N[C@@H](CCSC)C(=O)N[C@@H](Cc1c[nH]cn1)C(=O)N[C@@H](CC(N)=O)C(=O)N[C@@H](CC(C)C)C(=O)NCC(=O)N[C@@H](CCCCN)C(=O)N[C@@H](Cc1c[nH]cn1)C(=O)N[C@@H](CC(C)C)C(=O)N[C@@H](CC(N)=O)C(=O)N[C@@H](CO)C(=O)N[C@@H](CCSC)C(=O)N[C@@H](CCC(=O)O)C(=O)N[C@@H](CCCNC(=N)N)C(=O)N[C@H](C(=O)N[C@H]1CCC(=O)NCCCC[C@@H](C(=O)N[C@@H](CC(C)C)C(=O)N[C@@H](CC(C)C)C(=O)N[C@@H](CCC(N)=O)C(=O)N[C@@H](CC(=O)O)C(N)=O)NC(=O)[C@H](CCCNC(=N)N)NC(=O)[C@H](CC(C)C)NC(=O)[C@H](Cc2c[nH]c3ccccc23)NC1=O)C(C)C) [[Leu^27]cyclo(Glu^22-Lys^26)-hPTH-(1-30)-NH2] | 0.02 |
| SVSEIQLMHNLGKHLNSMERVEWLRKLLQDV-OH (lactam 22-26) [[Leu^27]cyclo(Glu^22-Lys^26)-hPTH-(1-31)-OH] | 0.007 |
| SVSEIQLMHNLGKHLNSMERVEWLRKLLQDVHNF-OH (lactam 22-26; N-terminus assumed; SMILES CC[C@H](C)[C@H](NC(=O)[C@H](CCC(=O)O)NC(=O)[C@H](CO)NC(=O)[C@@H](NC(=O)[C@@H](N)CO)C(C)C)C(=O)N[C@@H](CCC(N)=O)C(=O)N[C@@H](CC(C)C)C(=O)N[C@@H](CCSC)C(=O)N[C@@H](Cc1c[nH]cn1)C(=O)N[C@@H](CC(N)=O)C(=O)N[C@@H](CC(C)C)C(=O)NCC(=O)N[C@@H](CCCCN)C(=O)N[C@@H](Cc1c[nH]cn1)C(=O)N[C@@H](CC(C)C)C(=O)N[C@@H](CC(N)=O)C(=O)N[C@@H](CO)C(=O)N[C@@H](CCSC)C(=O)N[C@@H](CCC(=O)O)C(=O)N[C@@H](CCCNC(=N)N)C(=O)N[C@H](C(=O)N[C@H]1CCC(=O)NCCCC[C@@H](C(=O)N[C@@H](CC(C)C)C(=O)N[C@@H](CC(C)C)C(=O)N[C@@H](CCC(N)=O)C(=O)N[C@@H](CC(=O)O)C(=O)N[C@H](C(=O)N[C@@H](Cc2c[nH]cn2)C(=O)N[C@@H](CC(N)=O)C(=O)N[C@@H](Cc2ccccc2)C(=O)O)C(C)C)NC(=O)[C@H](CCCNC(=N)N)NC(=O)[C@H](CC(C)C)NC(=O)[C@H](Cc2c[nH]c3ccccc23)NC1=O)C(C)C) [[Leu^27]cyclo(Glu^22-Lys^26)-hPTH-(1-34)-OH] | 0.006 |

The molecules below were run against T1, adenylyl cyclase, ROS 17/2 cells (assay: Adenylyl cyclase stimulation, [3H]-cyclic AMP production in ROS 17/2 cells). Details: ROS 17/2 cells; concentration for half-maximal increase in AC activity; read-out: Adenylyl Cyclase (EC50).
Type: cell-based

| Molecule | EC50 [µM] |
| --- | --- |
| CC[C@H](C)[C@H](NC(=O)[C@H](CCC(=O)O)NC(=O)[C@H](CO)NC(=O)[C@@H](NC(=O)[C@H](CO)NC(C)=O)C(C)C)C(=O)N[C@@H](CCC(N)=O)C(=O)N[C@@H](CC(C)C)C(=O)N[C@@H](CCSC)C(=O)N[C@@H](Cc1c[nH]cn1)C(=O)N[C@@H](CC(N)=O)C(=O)N[C@@H](CC(C)C)C(=O)NCC(=O)N[C@@H](CCCCN)C(=O)N[C@@H](Cc1c[nH]cn1)C(=O)N[C@@H](CC(C)C)C(=O)N[C@@H](CC(N)=O)C(=O)N[C@@H](CO)C(=O)N[C@@H](CCSC)C(=O)N[C@@H](CCC(=O)O)C(=O)N[C@@H](CCCNC(=N)N)C(=O)N[C@H](C(=O)N[C@H]1CCC(=O)NCCCC[C@@H](C(=O)N[C@@H](CC(C)C)C(=O)N[C@@H](CC(C)C)C(=O)N[C@@H](CCC(N)=O)C(=O)N[C@@H](CC(=O)O)C(=O)N[C@H](C(N)=O)C(C)C)NC(=O)[C@H](CCCNC(=N)N)NC(=O)[C@H](CC(C)C)NC(=O)[C@H](Cc2c[nH]c3ccccc23)NC1=O)C(C)C [α-acetyl-[Leu^27]cyclo(Glu^22—Lys^26)—hPTH—(1-31)-NH2] (Ac-SVSEIQLMHNLGKHLNSMERVEWLRKLLQDV-NH2; lactam 22-26) | 0.024 |
